Laboratory results reported in patent publication US20030194400.

How the values were obtained:
[1] = biological target: fibronectin-Tissue Factor (Fn-TF) fusion protein
[2] = biological target: T1, soluble Tissue Factor extracellular domain TF1-218
T1 chain: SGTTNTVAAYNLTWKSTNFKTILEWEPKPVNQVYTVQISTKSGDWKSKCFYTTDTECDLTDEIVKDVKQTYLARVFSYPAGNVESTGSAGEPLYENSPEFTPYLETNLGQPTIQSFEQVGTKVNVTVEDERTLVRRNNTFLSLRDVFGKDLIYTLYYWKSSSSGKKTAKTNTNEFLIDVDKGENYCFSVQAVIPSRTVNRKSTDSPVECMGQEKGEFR

B1: Factor VIIa (protein)
chain: ANAFLEELRPGSLERECKEEQCSFEEAREIFKDAERTKLFWISYSDGDQCASSPCQNGGSCKDQLQSYICFCLPAFEGRNCETHKDDQLICVNENGGCEQYCSDHTGTKRSCRCHEGYSLLADGVSCTPTVEYPCGKIPILEKRNASKPQGRIVGGKVCPKGECPWQVLLLVNGAQLCGGTLINTIWVVSAAHCFDKIKNWRNLIAVLGEHDLSEHDGDEQSRRVAQVIIPSTYVPGTTNHDIALLRLHQPVVLTDHVVPLCLPERTFSERTLAFVRFSLVSGWGQLLDRGATALELMVLNVPRLMTQDCLQQSRKVGDSPNITEYMFCAGYSDGSKDSCKGDSGGPHATHYRGTWYLTGIVSWGQGCATVGHFGVYTRVSQYIEWLQKLMRSEPRPGVLLRAPFP
Question: Which results are given for B1?
Answer: Factor VIIa amidolytic activity (chromozym t-PA hydrolysis) [1]: Very little difference in amidolytic activity is discernable for Tissue Factor and Fn-TF except at high concentrations; Factor VIIa amidolytic activity (chromozym t-PA hydrolysis) [2]: Very little difference in amidolytic activity is discernable for Tissue Factor and Fn-TF except at high concentrations
